According to patent US20250296994A1 (SYSMEX, published 2025):

Biological target: T1, recombinant Crtac1B fragment #6 (human, UniProt Q9NQ79 28-606)
T1 construct: also called fCrtac1B (1-607)
T1 sequence: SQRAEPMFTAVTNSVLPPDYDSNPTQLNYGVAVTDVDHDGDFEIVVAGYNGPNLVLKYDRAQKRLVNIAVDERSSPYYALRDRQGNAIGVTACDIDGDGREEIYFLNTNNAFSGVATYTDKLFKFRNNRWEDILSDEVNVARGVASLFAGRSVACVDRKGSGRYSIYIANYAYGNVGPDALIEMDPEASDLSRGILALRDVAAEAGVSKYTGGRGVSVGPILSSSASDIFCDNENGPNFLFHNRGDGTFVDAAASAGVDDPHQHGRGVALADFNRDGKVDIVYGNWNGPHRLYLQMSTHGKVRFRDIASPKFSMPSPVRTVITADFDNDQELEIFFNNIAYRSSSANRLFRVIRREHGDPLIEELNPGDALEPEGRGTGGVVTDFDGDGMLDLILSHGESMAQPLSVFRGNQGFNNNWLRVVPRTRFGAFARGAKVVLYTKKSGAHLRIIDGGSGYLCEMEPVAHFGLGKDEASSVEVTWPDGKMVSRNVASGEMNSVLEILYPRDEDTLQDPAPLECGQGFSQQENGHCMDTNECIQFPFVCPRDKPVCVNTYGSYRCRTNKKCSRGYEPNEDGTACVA
Assay: antigen immobilized ELISA, hybridoma culture supernatant, color development at 655 nm same as plate without antigen
Method: A positive antigen (50 μL) and a negative control (50 μL) were added to each well of a 96 well plate, respectively. Then, the plate was incubated at 4° C. overnight, and the positive antigen and the negative control were immobilized in the well to obtain an antigen immobilized plate. Each well was washed twice with a washing solution (250 μL, 0.05% Tween (registered trademark) 20/20 mM potassium phosphate buffer (pH 7.4), 150 mM NaCl). To each well was added a blocking buffer (250 μL, 5% skim milk/20 mM potassium phosphate buffer (pH 7.4), 150 mM NaCl), and blocked at room temperature for 90 minutes. Culture supernatant (50 μL) of each hybridoma selected by primary screening was added to each well, and the cells were incubated at 37° C. for 1 hour. Each well was washed three times with a washing solution (250 μL). The HRP-labeled anti-mouse IgG antibody (MBL, product number 330) was diluted 1:1,000 with dilution buffer II (1% skim milk/20 mM potassium phosphate buffer (pH 7.4), 150 mM NaCl). A solution (50 μL) of this labeled antibody was added to each well, and the well was incubated at 37° C. for 1 hour. Each well was washed five times with a washing solution (250 μL). Chemical chromogenic substrate solutions (Bio-Rad, TMB Peroxidase EIA Substrate Kit) were added to respective wells at 50 μL, and the plate was allowed to stand at room temperature under shading for 30 minutes. The plate was set in a microplate reader (Thermo Fisher Scientific, Varioskan (registered trademark) Flash), and the color development intensity at 655 nm was measured for each well.
Reactivity of the monoclonal antibody contained in the culture supernatant of the hybridomas of clones 1B4 and 15C2 to the antigen was confirmed by ELISA using the 7 recombinant Crtac1B fragments described above. A specific operation was the same as that of the antigen immobilized ELISA method of Example 1. For comparison, ELISA was performed in the same manner using a 96 well plate in which no antigen was immobilized.
In addition, as to these monoclonal antibodies, the color development intensity when the recombinant Crtac1B fragments of #6 and #7 were used was substantially the same as that when a plate without immobilizing the antigen was used.

B1: 15C2 antibody (monoclonal antibody derived from the hybridoma of clone 15C2) (antibody, mouse IgG1, kappa, V domains shown)
VH: EVQLQQFGAELVKPGASVKISCKASGYTFTDYNMDWVKQSHGKSLEWIGDINPNYDSSSYNQKFKGKATLTVDKSSSTAYMELRSLTSEDTAVYYCTRSGGTYWGQGTLVTVSA
VL: DIQMNQSPSSLSASLGDTITITCHASQNINVWLSWYQQKPGNIPKLLIYKASNLHTGVPSRFSGSGSGTGFSLTISSLQPEDIATYYCQQAQSYPRTFGGGTKLEIKR
notes: Mouse IgG1; Used as hybridoma culture supernatant (ELISA) or purified from supernatant (IB, IP); also called anti-Crtac1B antibody; antibody of the present embodiment
**Q.** Does B1 bind?
**A.** no binding
